Data reported in article PMC2927601, “Molecular basis for defect in Alix-binding by alternatively spliced isoform of ALG-2 (ALG-2^ΔGF122) and structural roles of F122 in target recognition” (BMC Structural Biology, 2010).

B1: synthetic peptide of the ALG-2-binding site in Alix with N-terminal linker (peptide)
peptide: KGGSGGSQGPPYPTYPGYPGYSQ
notes: linker, printed in lower case; also called Alix ABS peptide; ABS oligopeptide; source: synthetic peptide (Biosynthesis Inc., USA)

Experiments:
[1] = biological target: B1; assay: SPR; Biacore2000, 25°C; Alix ABS peptide immobilized on CM5 chip; ALG-2 proteins 100 nM in HBS-P (10 mM HEPES-NaOH pH 7.4, 150 mM NaCl, 0.005% P20) with 100 μM CaCl2, 20 μl/min, injected 180 s; resonance signal at 10 s before dissociation phase relative to WT; conditions: both partners purified
[2] = biological target: T1, ALG-2 (apoptosis-linked gene 2), wild type, full-length recombinant (human, UniProt O75340 1-191); assay: as above; conditions: both partners purified
T1 construct: ALG-2, human, 22-kDa protein of 191 amino acid residues; longer (major) isoform regarded as wild type; also called WT; wild-type ALG-2

Binder	relative binding capacity (% of WT resonance signal) [1]	binding result [2]
ALG-2^F122A, full-length recombinant (natural protein, human, UniProt O75340 1-191, looked up, ALG-2, human, 191 residues, Phe122 substituted with Ala; PDB 2ZN8 is the wild-type full-length parent) MAAYSYRPGPGAGPGPAAGAALPDQSFLWNVFQRVDKDRSGVISDTELQQALSNGTWTPFNPVTVRSIISMFDRENKAGVNFSEFTGVWKYITDWQNVFRTYDRDNSGMIDKNELKQALSGAGYRLSDQFHDILIRKFDRQGRGQIAFDDFIQGCIVLQRLTDIFRRYDTDQDGWIQVSYEQYLSMVFSIV	240%	–
ALG-2^F122S, full-length recombinant (natural protein, human, UniProt O75340 1-191, looked up, ALG-2, human, 191 residues, Phe122 substituted with Ser; PDB 2ZN8 is the wild-type full-length parent) MAAYSYRPGPGAGPGPAAGAALPDQSFLWNVFQRVDKDRSGVISDTELQQALSNGTWTPFNPVTVRSIISMFDRENKAGVNFSEFTGVWKYITDWQNVFRTYDRDNSGMIDKNELKQALSGSGYRLSDQFHDILIRKFDRQGRGQIAFDDFIQGCIVLQRLTDIFRRYDTDQDGWIQVSYEQYLSMVFSIV	89%	–
B1	–	binds
ALG-2^F122W, full-length recombinant (natural protein, human, UniProt O75340 1-191, looked up, ALG-2, human, 191 residues, Phe122 substituted with Trp; PDB 2ZN8 is the wild-type full-length parent) MAAYSYRPGPGAGPGPAAGAALPDQSFLWNVFQRVDKDRSGVISDTELQQALSNGTWTPFNPVTVRSIISMFDRENKAGVNFSEFTGVWKYITDWQNVFRTYDRDNSGMIDKNELKQALSGWGYRLSDQFHDILIRKFDRQGRGQIAFDDFIQGCIVLQRLTDIFRRYDTDQDGWIQVSYEQYLSMVFSIV	36%	–
ALG-2^F122G, full-length recombinant (natural protein, human, UniProt O75340 1-191, looked up, ALG-2, human, 191 residues, Phe122 substituted with Gly; PDB 2ZN8 is the wild-type full-length parent) MAAYSYRPGPGAGPGPAAGAALPDQSFLWNVFQRVDKDRSGVISDTELQQALSNGTWTPFNPVTVRSIISMFDRENKAGVNFSEFTGVWKYITDWQNVFRTYDRDNSGMIDKNELKQALSGGGYRLSDQFHDILIRKFDRQGRGQIAFDDFIQGCIVLQRLTDIFRRYDTDQDGWIQVSYEQYLSMVFSIV	140%	–
